This series can be described thus: yeast display, Sf9 membrane polyspecificity reagent, FACS + sequencing; frameworks hold sequencing errors. The gist of the method:
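In a synthetic yeast display library (Saccharomyces cerevisiae BJ5465), nanobody expression was induced with galactose for 36–48 hours. FACS gates were set low and high (top ~1%) using anti-HA fluorescence for expression and streptavidin fluorescence for binding of the Sf9 membrane reagent. Each polyreactivity label is drawn from the gate of origin.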
In the case of “QVQLVDSGGCLVHAGASLRLSCAASGGIFRTYAMGWARQAAGKERELVAAITFSAGSTFYADSVKGRYTISRDNAKNTVYLQMNSLKPEDTAVYDCATPGYILGLYQYWHHYDYWGQGTQVTVSS”, the “polyreactivity (PSR sort gate)” value is on record as “low polyreactivity”. For “QVQLVDSGGCLVQAGGSLRLSCASSGRIIAHYAMGWYRQSPGKESELVAAISTRGGSTYYADSVKGRFTISRDNEKNTVYLQMNSLKPEDTAVYYCAAKSNNIATMDYWGQGTQVTVSS” the value was “low polyreactivity”; for “QVQLVDSGGGLDQAGGSLRLSCAASGSNLRLKAMGWYRQAPGKERELVADITRAGSTYYADSVKGRFTISRDNAKNTVYLQMNSLKPEDTAVYYCAADAYTGQIPYYYFEHYYWGHGTQVTVSS”, “high polyreactivity”. For the sequence “QVQLVDSGGGLFQAGGSLSLICAASASKYDINAMGRYRQAPGKETELVADISWSGGRTYYADSVKGRFTISRDNAKNTVYLKMNSLKPEETAVYYCNAQDSRFWYAEYDSWGQGTQVTVSS”, the “polyreactivity (PSR sort gate)” value is listed as “low polyreactivity”. Regarding “QVQLVDSGGGLVKAGGSLRLSCAASGSTFDTNVMGWYRPAPGKERELVAAIDVSGGSTYYADSVKGRFTISRDNAKNYVYLQMYSLKPEDTAVFYSAAEDGLYGMDYWGQGSQVTVSS”, the “polyreactivity (PSR sort gate)” value is listed as “low polyreactivity”. For “QVQLVDSGGGLVPSGGSLRISCAASGRIFYPYAMGWYRQAPGKEREVVATITRTGSTYYADSVKGRFTISRDNAMNTVYLQMNSLKPEDTAVYYCNAGIYRPRVDYWGQGTQVTVSS” the value was “high polyreactivity”.

For the sequence “QVQLVDSGGGLVQAGASLRLRCAASVLTLYANAMGRYRQAPGKERELVAGIDNGGSTSYADSVKGRFTISRDNAKKTVYLQKNSLKPEDTAVYYCAAQRDSVGGRHYAQRWIYLMYYWGQGTQVTVSS”, the “polyreactivity (PSR sort gate)” value is recorded as “low polyreactivity”. The same measure for “QVQLVDSGGGLVQAGCSLRLSCAASGRTFSNYAMGWYRQAPGKDRELVAAISWRGGSTYYADSVKGRFTISRDNAKNTVYLQMTSLKPEDTAVYYCAALPRYALGEDYWGQGTQVTVSS”: “high polyreactivity”; for “QVQLVDSGGGLVQAGGILRLSCAASGRTISSYAMGWYRQAPGKERELVAAITRTGGRTYYAYSVKGRFTISRDNAKNTVYLQMNSLKPEDTAVYYCAATGIRYGVKYYYWGQGTQVTVSS”: “high polyreactivity”; for “QVQLVDSGGGLVQAGGRLLLSCAASGRTFRKYTMGWYREAPGKERELVAAISSRGGSTYYADSVKGRFTISRDNAKYTVYLQMNSMKPEDTAVYYCDTDYITPSSEGDYWGQGTQVTVSS”: “high polyreactivity”. The same measure for “QVQLVDSGGGLVQAGGRLRLSCAASGRTFVRYAMGWYRQAPGKERELVATIRWRGGSTYYADSVKGRFTISRDNAKNTVYLQMNSLKPDDTAVYYCAARRYSSGLTDDYWGQGTQVTVSS”: “high polyreactivity”; for “QVQLVDSGGGLVQAGGRLRLSCAASGSTFIYNAMGWYRQAPGKERELVASISTSGGSTYYADSVKGRFTISRDNAKNTVYLQMNSLKPEDTAVYYCAKRYFFKYGYWGQGTQVTVSS”: “high polyreactivity”; for “QVQLVDSGGGLVQAGGRLRLSCAASGVTIQPNARGWYRQAPGKERELVPSISWSDGSTYYADSVKGRFTISRDNAKNTVFLQMNSLKPEDTAVYYCAADFTYYDPPYRDYNYESWGQGTQVTVSS”: “low polyreactivity”. Regarding “QVQLVDSGGGLVQAGGSLRLICAASGFIFGKYAMGWYRQAPGKEWEFVAAITGNGGSTYYADSVKGRFTISRDNAKNTVYLQMNSLKPEDTAVYYCNADRGYRRRSGMDYWGQGTQLTVSS”, the “polyreactivity (PSR sort gate)” value is given as “low polyreactivity”. For “QVQLVDSGGGLVQAGGSLRLRCAASGRIFWYYAMGWYRQAPGKERELVASITRGNNTYYADSVKGRFTISRDNAKNTVYLQMNSLKPEVTAVFYCAKRYIYSYYWGQGTQVTVSS” the value was “high polyreactivity”. Regarding “QVQLVDSGGGLVQAGGSLRLSCAASGFIFRSYALGWYRQAPGKERELVAAISRRGGSTYYADSVKGRFTISRDHAKNTVYLQMNSLKPEDTAVYYCAAESRGVYGYAQSDFWGQGTQVTVSS”, the “polyreactivity (PSR sort gate)” value is “high polyreactivity”. For “QVQLVDSGGGLVQAGGSLRLSCAASGFIFSSYAMGWYRQAPGKERELVAAITRSGGRTYYADSVKGRFTISRDNAKNTVYLQMNSLKQEDTAVYYCAAPNGAGYRGDYWGQGTQVTVSS”, the “polyreactivity (PSR sort gate)” value was “high polyreactivity”.

For the sequence “QVQLVDSGGGLVQAGGSLRLSCAASGFTFAYYALGWYRPAPGKEREFVAAITSGGRTNYADSVKGRFTISRDNAKNTVYLQMNSLKPEDTAVYYCAKYRRGGSRHYSVFNHDYWGQGTQVTVSS”, the “polyreactivity (PSR sort gate)” value is “high polyreactivity”. The same measure for “QVQLVDSGGGLVQAGGSLRLSCAASGFTFAYYAMGWYRQAPGKERELVAGISWRGGRTYYADSVKGRFTISRDNAKNTVYLQMNSLKPEDTAVYYCAKQPGNFGRFDYWGQGTKVTVSS”: “high polyreactivity”. Turning to “QVQLVDSGGGLVQAGGSLRLSCAASGFTFDGYAMGWYRQAPGQEREFVATISLSGGSTYYADSVKGRCTISRDNAKNTVYLQMNSLNPEDTAVYYCGKDTQPYLIDGFEYWGQGTQVTVSS”, the “polyreactivity (PSR sort gate)” value is given as “low polyreactivity”. For “QVQLVDSGGGLVQAGGSLRLSCAASGFTFQRKAMGWYRQATGKERELVAAISKSGGSTYYADSVKARFTISRDNEKNTVYLEMNSLKPEDTAVYYCASTALFSGLTKRYYWGQGTQVTVSS” the value was “high polyreactivity”; for “QVQLVDSGGGLVQAGGSLRLSCAASGFTFQYYSMGWYRQATGKERELVADISSSGDSTNYADSVKGRFTISRDTAKNTVYLQMNSLKPEDTAVYYCAADYSQPNFEYYYWGQGTQVTVSS”, “low polyreactivity”; for “QVQLVDSGGGLVQAGGSLRLSCAASGGIFYHNAMGWYRQAPGKERELVAAISGRGGRTYYADSVKGRFTISRDNAKNTVYLQMNSLKPEDTAVYYCYADQYKDFDYWGQGTQVTVSS”, “low polyreactivity”. The same measure for “QVQLVDSGGGLVQAGGSLRLSCAASGIIFSDYAMGWYRKAPGIERELVAAISRNGGSTYYADSVKGRFTISRDIAKYTVYLQMNSLKPEDTAVYYCAATRRYRYNWGQGTQVTVSS”: “high polyreactivity”; for “QVQLVDSGGGLVQAGGSLRLSCAASGITFDHYAMGWSRQAPGKEREFVAAIDDIGGDTYYADSVKGRFTISRDNAKNTVYLQMNSLKPEATAVYYCAADYGYYSRFYYWGQGTQVTVSS”: “low polyreactivity”; for “QVQLVDSGGGLVQAGGSLRLSCAASGITFYDYTMGWYRQAPGKERELVAAITSSGVSTYYADSVKGRFTISRDNAKNTVYLQMNSLKPEDTAVYYCAADLYEDPNGEDDYWGQGTQVTVSS”: “low polyreactivity”. Consider “QVQLVDSGGGLVQAGGSLRLSCAASGITFYYYAMGSYRQAPGKETELVAAISSRGGSTYYADSVKGRFTISRDNAKNTVYFQMNSLKQEDTAVYYCAADYYSSYYSSYIKSYYWGLGTQVTVSS”, for which the “polyreactivity (PSR sort gate)” value is listed as “high polyreactivity”. For “QVQLVDSGGGLVQAGGSLRLSCAASGITLSWYAKGWYRQAPGQERELVAGISGRGGRTYYADSVKGRFTISRDNAKNTVYLQMNSLKPEDTAVYYCAAVSPGYRSYDYWGQGTQVTVSS”, the “polyreactivity (PSR sort gate)” value is “high polyreactivity”.

Regarding “QVQLVDSGGGLVQAGGSLRLSCAASGITLYRYVMRWYRQAPGKESELVADISGRGTSTYYADSVKGPFTISRDNAKNTVYLQMNSLKPEDTAVYYCNAEYTKTGALVIPYTYYYAEDYWGQGTQVTVSS”, the “polyreactivity (PSR sort gate)” value is reported as “low polyreactivity”. On to “QVQLVDSGGGLVQAGGSLRLSCAASGLIFAYYAMGWYRKAPGKERELVAAISSVGSTYYADSVKGRFTISRDNAKNTVYLQMNSLKPEDTSVYYCAAALYPYYWPEYNYWGQGTQVTVSS”, for which the “polyreactivity (PSR sort gate)” value is given as “high polyreactivity”.

Consider “QVQLVDSGGGLVQAGGSLRLSCAASGLIFSDYAMGWYRPAPGKERELVAAIRSGGRTYYADSVKGRFTISRDNATNTVYLEMNSLKPEDTAVYFCNKLYRRYPVPREYDYWGQGTQVTVSS”, for which the “polyreactivity (PSR sort gate)” value is “high polyreactivity”. Regarding “QVQLVDSGGGLVQAGGSLRLSCAASGLIFYHNTMGWSRQAPGKEREFVASISQSGGSTYYADSVKGRFTISRDNAKNTVYLQMNSLKPEDTAVYYCAKKVRRWRTMDYWGQGTQVTVSS”, the “polyreactivity (PSR sort gate)” value was “high polyreactivity”. As for “QVQLVDSGGGLVQAGGSLRLSCAASGLTFGFNAMGWYRQAPGKERELVAAISSGGSTYYADSVKGRFTISRDNAKNTVYLQMNSLKPEDTAVYYCATSVRQYGRTTYYYWGQGTQVTVSS”, the “polyreactivity (PSR sort gate)” value was “high polyreactivity”. “QVQLVDSGGGLVQAGGSLRLSCAASGLTFRYYAMGWYRQAPGKERELVASISWSGASTYYADSVKGRFTISRDNAKNTVYLQMNSLKPEDTAVYYCNAGYFGSYDYWGQGTQVTVSS”: the “polyreactivity (PSR sort gate)” value is on record as “high polyreactivity”. The same measure for “QVQLVDSGGGLVQAGGSLRLSCAASGLTFSKYAMGWYRQAPGKERELVATITRRGSSTYYADSVKGRFTISRDNAKNTVYLQMNSLKPEDTAVYYCNAVGVRRAIGYPSQTEYGYWGQGTQVTVSS”: “high polyreactivity”; for “QVQLVDSGGGLVQAGGSLRLSCAASGNILRKYAMGWYRQAPGKERELVAAISSSGGRTYYADSVKGRFTISRDNAKNTVYLQMYSLKPEDTAVYYCAKDPYGRLQPRPRFGYWGQGTQVTVTS”: “high polyreactivity”. For “QVQLVDSGGGLVQAGGSLRLSCAASGRIFDRNAMGWYRQAPGKERDLVARIDPGDDTNYADSVKGRFTISRDNAKNTVYLQMNSQKPEDTAVYYCATDPDYVLYRTAYYEYDYWGQGTQVTVSS” the value was “low polyreactivity”; for “QVQLVDSGGGLVQAGGSLRLSCAASGRIFGQYAMGWYRDATGKERELVAAISWRGGTTYYADSVKGRFTISRDNAKNTVYLQMNSLKPEDTAVFYCNADVWVYPYDYWGQGTQVTVSS”, “low polyreactivity”; for “QVQLVDSGGGLVQAGGSLRLSCAASGRIFKWTAMGWYRPAPGKERELVAAIRWSSGRTYYADSVKGRFTISRDNAKNTVYLQMNSLKPEDTAVSYCAANNGYGMDYWGQGTQVTVSS”, “high polyreactivity”. The same measure for “QVQLVDSGGGLVQAGGSLRLSCAASGRIFRPYAMGWYREAPRKERELVAAISFSGGSTYYADSVKGRFTISRDNAKNTVYLQMNSVKPEDTAVYYCNAVFINKYGKYGDWGQGTQVTVSS”: “high polyreactivity”; for “QVQLVDSGGGLVQAGGSLRLSCAASGRIFSRYAMGGYRQAPGKERQLVAAITIGGRTNYADSVKGRFTFSRDNAKNTVYLQMNSLKPEDSAVYYCAVVLYTRYPPRVRYYYWGQGTQVTVSW”: “high polyreactivity”.

These data come from the nanobody polyreactivity screen of Harvey et al. (2022).
